± gives the uncertainty stated by the source.
Assay: protein stability index of a GFP-peptide fusion (yeast GPS) (PSI 1-4); higher = more stable; sorted into four equal gates, so the index is relative within each strain
How it was run: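 Tiled 17-residue peptides from yeast proteins were fused downstream of GFP on a plasmid that also expresses Cherry, and the pooled library was carried in yeast. Mid-log cultures grown in leucine-free medium were sorted into four equal gates by GFP/Cherry fluorescence ratio. Plasmids from each gate were PCR-amplified and Illumina-sequenced, and reads were assigned to strains by barcodes. Each peptide's protein stability index is the sum, over gates, of the gate's read frequency multiplied by its gate number.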

Sequence | protein stability index (doa10∆) | protein stability index (pdr5∆) | protein stability index (san1∆) | protein stability index (ubr1∆)
REPRVVSALQMLKQHLF [PUP1] | 3.1 ± 0.13 | 3.05 ± 0.094 | 3.02 ± 0.066 | 2.79 ± 0.049
VPSFLRPDITMYCRPAP [GRR1] | 2.12 ± 0.053 | 2.39 ± 0.045 | 2.1 ± 0.057 | 2.38 ± 0.051
VGGTTSISGFKEALLGQ [ARP9] | 2.67 ± 0.087 | 2.53 ± 0.053 | 2.51 ± 0.048 | 2.81 ± 0.039
VYAFKAKNKSTRINGLN [REC8] | 1.53 ± 0.1 | 1.65 ± 0.094 | 1.77 ± 0.19 | 1.59 ± 0.12
QAMGVFLTNYNVRMDTM [RPB2] | 3.54 ± 0.19 | 3.14 ± 0.16 | 3.63 ± 0.11 | 3.5 ± 0.14
TQNSRHYMVHEALNLLK [LIN1] | 3.03 ± 0.086 | 2.98 ± 0.075 | 2.76 ± 0.077 | 3.07 ± 0.064
ESNIKMTLEDNNVTSNP [SSN2] | 2.91 ± 0.092 | 3.25 ± 0.11 | 2.68 ± 0.086 | 2.95 ± 0.055
SQLKKSKAQQKTAEQVA [RPL7A] | 2.7 ± 0.071 | 2.79 ± 0.087 | 2.58 ± 0.1 | 2.94 ± 0.052
SSLLYTYDENDDFFKEL [ESC2] | 2.52 ± 0.13 | 2.8 ± 0.17 | 2.62 ± 0.15 | 2.87 ± 0.094
DTLDGDLMDDMSDISDL [RPN3] | 2.71 ± 0.18 | 2.69 ± 0.076 | 2.11 ± 0.13 | 2.14 ± 0.1
NLFPLKPKMLPIPSKPT [SRP68] | 2.38 ± 0.11 | 2.55 ± 0.093 | 2.43 ± 0.16 | 2.61 ± 0.081
GETIKSNAVTQTNIWEE [SEM1] | 3.37 ± 0.087 | 3.54 ± 0.16 | 2.97 ± 0.17 | 3.43 ± 0.14
ININEFALPAGSPKSAT [CDC53] | 2.71 ± 0.067 | 2.76 ± 0.053 | 2.64 ± 0.07 | 2.73 ± 0.04
PIGRHEELLAQYESQAP [SWP82] | 2.35 ± 0.057 | 2.25 ± 0.063 | 2.07 ± 0.1 | 2.07 ± 0.037
TSALSELSGLISSAKLD [QCR2] | 1.69 ± 0.1 | 2 ± 0.083 | 1.7 ± 0.13 | 1.94 ± 0.11
YQRKRLVTQHKAKYNTP [RPL5] | 3.21 ± 0.3 | 2.8 ± 0.2 | – | –
STFTKHLIKCFFKITLQ [ITC1] | 1.43 ± 0.039 | 1.28 ± 0.03 | 1.51 ± 0.058 | 1.6 ± 0.03
LFGEKSILGKFCPIVEE [YCS4] | 1.55 ± 0.041 | 1.74 ± 0.052 | 1.57 ± 0.11 | 1.73 ± 0.039
VISNLVPKLESSRTKFW [YJL039C/NUP192] | 2.36 ± 0.26 | 2.6 ± 0.13 | 2.48 ± 0.28 | 2.69 ± 0.2
PSLYRLLNILITYGIIK [SRB8] | 1.37 ± 0.12 | 1.07 ± 0.12 | – | 1.04 ± 0.044

Sequence | protein stability index (doa10∆) | protein stability index (pdr5∆) | protein stability index (san1∆) | protein stability index (ubr1∆)
LAHYVVTAKLLGFTPGE [FAS1] | 1.6 ± 0.13 | 1.28 ± 0.082 | – | 1.48 ± 0.12
RKCCNHPYLFEGAEPGP [ISW2] | 3.06 ± 0.064 | 3.11 ± 0.067 | 3.11 ± 0.05 | 3.2 ± 0.052
RRTNTPIGRDGKLAKPR [RPB2] | 3.08 ± 0.1 | 3.06 ± 0.078 | 2.76 ± 0.084 | 2.96 ± 0.1
MSLSNKTVKELRQLLKE [RRI1] | 1.95 ± 0.094 | 1.42 ± 0.083 | 1.28 ± 0.11 | 1.85 ± 0.15
EKGNAKMIDFATLSKLK [SIR3] | 3.15 ± 0.074 | 3.08 ± 0.057 | 3.33 ± 0.037 | 3.24 ± 0.035
SQSKGTVWSANFEYDLS [YOR098C/NUP1] | – | 3.35 ± 0.15 | 2.69 ± 0.28 | 3.38 ± 0.12
QFKKLTHAQRTGLSQIP [PRP8] | 2.05 ± 0.11 | 2.46 ± 0.1 | 2.12 ± 0.14 | 2.53 ± 0.12
NQLEDFILELEHKTPEL [YIL149C/MLP2] | 2.74 ± 0.14 | 3.28 ± 0.16 | 3.07 ± 0.14 | 3.35 ± 0.12
EGNTVLEKGNNPSVKQG [SWP82] | 3.11 ± 0.067 | 3.12 ± 0.082 | 3.26 ± 0.065 | 2.87 ± 0.064
FEQTAFSRHAQQQTSTF [SIR4] | 1.94 ± 0.07 | 2.32 ± 0.092 | 1.79 ± 0.093 | 2.01 ± 0.055
ARKSAPSTGGVKKPHRY [HHT1] | 1.66 ± 0.065 | 1.87 ± 0.052 | 2.03 ± 0.075 | 2.03 ± 0.063
QTTEGYDPKDALKNACN [RPB11] | 3.28 ± 0.26 | 3.28 ± 0.14 | 3.26 ± 0.082 | 3.35 ± 0.15
DRKNRAPPQRPRFNRDN [RPS26B] | 1.87 ± 0.2 | 1.4 ± 0.15 | – | 3.04 ± 0.16
ITYGIIKVPTYIRKLIS [SRB8] | 1.32 ± 0.074 | 1.44 ± 0.091 | 1.42 ± 0.2 | 1.36 ± 0.085
TTIDSLNAELESKLIPQ [SMC3] | 3.06 ± 0.12 | 3.03 ± 0.085 | 2.46 ± 0.14 | 3.1 ± 0.066
KDLKEILSGFHNAGPVA [RPP1B] | 2.93 ± 0.057 | 2.75 ± 0.062 | 2.62 ± 0.066 | 2.58 ± 0.066
MKHLGRSEGNPVIGVFQ [FAS2] | – | 2.78 ± 0.08 | 2.9 ± 0.094 | 3.01 ± 0.093
KVLCLAVAVGNVEMEED [RPL1A] | 1.58 ± 0.064 | 1.67 ± 0.053 | 1.33 ± 0.09 | 1.68 ± 0.044
PINLENNDGSYGLFLKY [SRB8] | 3.07 ± 0.11 | 2.34 ± 0.075 | 2.18 ± 0.14 | 1.81 ± 0.069
